Values of other authors as cited in paper PMC6815954, “Rational design of caspase-responsive smart molecular probe for positron emission tomography imaging of drug-induced apoptosis” (Theranostics, 2019).

Tested on: tumor
Design: method as in PMID 25972517

B1: ^99mTc-Annexin V: established radiotracer (protein, UniProt P08758 2-320, looked up)
Annexin A5: AQVLRGTVTDFPGFDERADAETLRKAMKGLGTDEESILTLLTSRSNAQRQEISAAFKTLFGRDLLDDLKSELTGKFEKLIVALMKPSRLYDAYELKHALKGAGTNEKVLTEIIASRTPEELRAIKQVYEEEYGSSLEDDVVGDTSGYYQRMLVVLLQANRDPDAGIDEAQVEQDAQALFQAGELKWGTDEEKFITIFGTRSVSHLRKVFDKYMTISGFQIEETIDRETSGNLEQLLLAVVKSIRSIPAYLAETLYYAMKGAGTDDHTLIRVMVSRSEIDLFNIRKEFRKNFATSLYSMIKGDTSGDYKKALLLLCGEDD
modifications: 99mTc radiolabel
notes: established radiotracer
For B1, the “differential response to treatment” value is listed as “little differential response”.
